PMC6549176, “SAGA DUBm-mediated surveillance regulates prompt export of stress-inducible transcripts for proteostasis” (Nature Communications, 2019)

Molecular target: T1, recombinant Sgf73p (MBP-Sgf73p) (S. cerevisiae, UniProt P53165 1-657)
T1 construct: Sgf73p of the SAGA DUBm, S. cerevisiae; source: recombinant
T1 sequence (looked up): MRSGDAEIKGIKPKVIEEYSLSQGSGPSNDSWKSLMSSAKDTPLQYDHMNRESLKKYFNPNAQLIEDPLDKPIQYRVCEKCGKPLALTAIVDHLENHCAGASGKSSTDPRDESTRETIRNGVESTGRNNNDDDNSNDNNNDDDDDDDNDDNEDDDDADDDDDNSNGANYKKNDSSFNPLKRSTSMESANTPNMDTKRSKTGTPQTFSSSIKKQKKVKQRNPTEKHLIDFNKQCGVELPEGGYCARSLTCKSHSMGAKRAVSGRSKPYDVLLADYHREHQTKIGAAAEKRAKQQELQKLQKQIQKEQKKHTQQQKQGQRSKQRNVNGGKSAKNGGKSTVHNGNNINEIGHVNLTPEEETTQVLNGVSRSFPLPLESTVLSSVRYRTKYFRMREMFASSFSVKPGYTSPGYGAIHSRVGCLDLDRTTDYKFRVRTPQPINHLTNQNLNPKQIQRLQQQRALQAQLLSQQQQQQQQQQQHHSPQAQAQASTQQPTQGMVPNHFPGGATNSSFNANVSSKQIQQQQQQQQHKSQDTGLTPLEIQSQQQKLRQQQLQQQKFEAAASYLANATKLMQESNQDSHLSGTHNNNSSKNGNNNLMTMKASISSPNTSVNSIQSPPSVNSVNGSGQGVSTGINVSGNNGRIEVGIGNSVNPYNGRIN
Assay: pull-down; GST-tagged Yra1p or its subfragments as bait (1 µg) on beads, 200 ng target protein; 50 mM HEPES-KOH pH 7.5, 150 mM NaCl, 10% glycerol, 0.1% NP40, 0.5 mM DTT, 1 mM EDTA; 4 °C, 2 h; Western blotting
Settings: both partners purified

B1: GST-tagged Yra1p (natural protein, S. cerevisiae, UniProt Q12159 1-226, looked up)
chain: MSANLDKSLDEIIGSNKAGSNRARVGGTRGNGPRRVGKQVGSQRRSLPNRRGPIRKNTRAPPNAVARVAKLLDTTREVKVNVEGLPRDIKQDAVREFFASQVGGVQRVLLSYNERGQSTGMANITFKNGELARRAVERFNGSPIDGGRSRLRLNLIVDPNQRPVKSLADRIKAMPQKGGNAPRPVKRGPNRKAAMAKSQNKPKREKPAKKSLEDLDKEMADYFEKK
notes: Yra1p, essential mRNA export factor, S. cerevisiae; also called GST-Yra1p
binding result: binds
